Data reported in patent publication US20250326840A1 (QURE BIOTECHNOLOGY SHANGHAI, published 2025).
Where a chain is given by its changes, count along the chain named. Numbers in names are those of the source.

T1: QP098 (cyno SIRPα (I7G9Z7) ECD(E31-R369)-flag-his) (cynomolgus)
T1 construct: the construct carries flag and his tags; also called cynoSIRPα (ECD); cynomolgus SIRPα
T1 chain: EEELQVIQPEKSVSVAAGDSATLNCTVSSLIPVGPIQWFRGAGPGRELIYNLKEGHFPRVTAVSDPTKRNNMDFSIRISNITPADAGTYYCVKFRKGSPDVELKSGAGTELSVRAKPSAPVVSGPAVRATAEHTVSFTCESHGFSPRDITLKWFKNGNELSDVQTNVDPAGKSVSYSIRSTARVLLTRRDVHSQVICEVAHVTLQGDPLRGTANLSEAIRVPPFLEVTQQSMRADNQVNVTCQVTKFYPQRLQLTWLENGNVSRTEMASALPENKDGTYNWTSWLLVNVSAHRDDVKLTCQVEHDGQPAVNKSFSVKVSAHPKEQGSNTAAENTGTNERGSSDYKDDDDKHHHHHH

T2: QP273 (cynoSIRPα2-flag-his T-557-14) (cynomolgus)
T2 construct: also called cynomolgus SIRPα (QP273)
T2 chain: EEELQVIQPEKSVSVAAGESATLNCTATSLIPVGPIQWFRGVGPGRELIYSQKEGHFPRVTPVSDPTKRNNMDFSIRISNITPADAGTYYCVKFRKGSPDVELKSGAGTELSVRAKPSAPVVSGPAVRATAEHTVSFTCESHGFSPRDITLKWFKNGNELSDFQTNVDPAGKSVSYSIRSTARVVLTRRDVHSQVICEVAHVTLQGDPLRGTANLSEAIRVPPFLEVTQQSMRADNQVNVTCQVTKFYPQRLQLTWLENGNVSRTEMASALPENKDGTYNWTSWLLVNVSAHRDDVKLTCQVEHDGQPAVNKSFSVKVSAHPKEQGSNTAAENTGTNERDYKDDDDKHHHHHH

T3: QP271 (rhesus SIRPα1-flag-his T-557-28) (rhesus monkey)
T3 construct: also called rhesus monkey SIRPα (QP271); monkeySIRPα1-flag-his
T3 chain: T2 chain with E19D, A27V, V42A, S51H, P62S, D65E, P66S, R77H, L103V

T4: QP100 (cyno SIRPα (G7PGS8) ECD(E29-R368)-flag-his) (cynomolgus)
T4 construct: the construct carries flag and his tags; also called cynoSIRPα-flag-his; Cynomolgus SIRPα (QP100)
T4 chain: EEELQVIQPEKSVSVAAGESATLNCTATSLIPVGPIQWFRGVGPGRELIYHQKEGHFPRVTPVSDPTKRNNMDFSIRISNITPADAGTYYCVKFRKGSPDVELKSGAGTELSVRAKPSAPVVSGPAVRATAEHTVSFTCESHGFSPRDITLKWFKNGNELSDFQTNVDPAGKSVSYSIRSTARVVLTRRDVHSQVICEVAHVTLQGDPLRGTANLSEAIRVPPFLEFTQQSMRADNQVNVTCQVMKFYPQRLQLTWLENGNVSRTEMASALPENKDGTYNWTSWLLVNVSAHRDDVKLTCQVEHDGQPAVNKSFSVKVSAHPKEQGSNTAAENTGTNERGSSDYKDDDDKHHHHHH

B1: QP2561581 (antibody, human IgG4, V domains shown)
VH: QVQLVQSGAEVKKPGASVKVSCKASGYTFTNYWINWVRQAPGQGLEWIAMIDPSDSETHYNQIFKDRATLTTDTSTSTAYMELRSLRSDDTAVYYCAMDYGSLYAMDYWGRGTLVTVSS
VL: DIVLTQSPDSLAVSLGERATINCRASKSVSSSGYNYIFWYQQKPGQPPKLLIYLASNLDPGVPDRFSGSGSGTDFTLTISSLQAEDVAVYYCQHSRELPTFGQGTKLEIK
notes: Human IgG4 heavy constant region and kappa CL
B2: QP2561586 (antibody, human IgG4, V domains shown)
VH: B1 VH
VL: B1 VL with P60S, H94E
notes: as for B1
B3: QP2561589 (antibody, human IgG4, V domains shown)
VH: B1 VH
VL: B1 VL with P60S, H94E, R96W
notes: as for B1
B4: QP2561594 (antibody, human IgG4, V domains shown)
VH: B1 VH
VL: B1 VL with P60S, E97D
notes: as for B1
B5: QP32700624 (bispecific antibody, human IgG1, kappa, L234A L235A)
heavy: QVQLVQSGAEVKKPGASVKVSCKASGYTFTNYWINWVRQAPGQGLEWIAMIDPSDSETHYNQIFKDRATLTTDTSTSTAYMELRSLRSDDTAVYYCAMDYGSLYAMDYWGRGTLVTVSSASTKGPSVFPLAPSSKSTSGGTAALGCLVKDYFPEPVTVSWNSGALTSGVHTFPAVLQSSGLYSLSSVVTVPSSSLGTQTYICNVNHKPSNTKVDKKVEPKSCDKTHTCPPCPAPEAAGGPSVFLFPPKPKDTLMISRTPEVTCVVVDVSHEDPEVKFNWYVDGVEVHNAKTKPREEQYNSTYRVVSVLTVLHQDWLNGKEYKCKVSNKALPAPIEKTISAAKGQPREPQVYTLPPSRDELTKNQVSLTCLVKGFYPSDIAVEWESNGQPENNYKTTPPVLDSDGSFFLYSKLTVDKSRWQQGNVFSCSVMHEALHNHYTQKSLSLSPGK
light: EVQLLESGGGLVQPGGSLRLSCAASGFTLDDYAIGWFRQAPGKGREGVSCISKSGETTFFVESVKDRFTISRDNSKNTLYLQMNSLRAEDTAVYYCATGSWCTVGSMSRQFYRQFFHSWGQGTLVTVSSGGGGSGGGGSDIVLTQSPDSLAVSLGERATINCRASQSVRSSGYNWIFWYQQKPGQPPKLLIYLASNRDSGVPDRFSGSGSGTDFTLTISSLQAEDVAVYYCQHSRELPTFGQGTKLEIKRTVAAPSVFIFPPSDEQLKSGTASVVCLLNNFYPREAKVQWKVDNALQSGNSQESVTEQDSKDSTYSLSSTLTLSKADYEKHKVYACEVTHQGLSSPVTKSFNRGEC
notes: Anti-PD-L1 VHH-(G4S)2 fused to the N-terminus of the light chain
B6: QP32700625 (bispecific antibody, human IgG1, kappa, L234A L235A)
heavy: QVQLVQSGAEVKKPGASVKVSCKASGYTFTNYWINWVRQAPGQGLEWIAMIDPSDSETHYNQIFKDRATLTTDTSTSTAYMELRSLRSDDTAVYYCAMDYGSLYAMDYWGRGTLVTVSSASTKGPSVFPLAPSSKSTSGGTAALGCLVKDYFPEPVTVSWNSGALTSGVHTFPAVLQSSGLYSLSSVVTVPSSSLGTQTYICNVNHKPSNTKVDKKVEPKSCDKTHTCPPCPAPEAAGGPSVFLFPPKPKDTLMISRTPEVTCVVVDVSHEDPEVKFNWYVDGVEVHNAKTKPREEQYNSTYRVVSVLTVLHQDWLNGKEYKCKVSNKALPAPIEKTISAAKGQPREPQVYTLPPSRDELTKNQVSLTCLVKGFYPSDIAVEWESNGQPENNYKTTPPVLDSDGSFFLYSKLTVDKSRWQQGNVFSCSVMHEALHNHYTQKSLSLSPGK
light: EVQLLESGGGLVQPGGSLRLSCAASGFTLDDYAIGWFRQAPGKGREGVSCISKSGETTFFVESVKDRFTISRDNSKNTLYLQMNSLRAEDTAVYYCATGSWCTVGSMSRQFYRQFFHSWGQGTLVTVSSGGGGSGGGGSGGGGSDIVLTQSPDSLAVSLGERATINCRASQSVRSSGYNWIFWYQQKPGQPPKLLIYLASNRDSGVPDRFSGSGSGTDFTLTISSLQAEDVAVYYCQHSRELPTFGQGTKLEIKRTVAAPSVFIFPPSDEQLKSGTASVVCLLNNFYPREAKVQWKVDNALQSGNSQESVTEQDSKDSTYSLSSTLTLSKADYEKHKVYACEVTHQGLSSPVTKSFNRGEC
notes: Anti-PD-L1 VHH-(G4S)3 fused to the N-terminus of the light chain
B7: QP256291 (antibody, human IgG4, V domains shown)
VH: B1 VH
VL: B1 VL with S30G, Y36W, I37L, L58R, P60S
notes: as for B1
B8: QP2561770 (antibody, human IgG4, V domains shown)
VH: B1 VH
VL: B1 VL with K27Q, S30R, Y36W, L58R, P60S, H94E
notes: as for B1
B9: QP2561771 (antibody, human IgG4, V domains shown)
VH: B1 VH
VL: B1 VL with Y36W, L58R, P60S, H94E
notes: as for B1

target: T5, QP002 (biotinylated in the blocking assays, sites not given); assay: blocking ELISA: QP001.2 (CD47) coated, biotin-QP002 (SIRPα-FC) mixed with the antibody, HRP-streptavidin; blocked ligand: CD47
T5 construct: also called SIRPα-FC; Biotin-QP002
T5 sequence (SIRPα-Fc fusion chain, as listed by the source): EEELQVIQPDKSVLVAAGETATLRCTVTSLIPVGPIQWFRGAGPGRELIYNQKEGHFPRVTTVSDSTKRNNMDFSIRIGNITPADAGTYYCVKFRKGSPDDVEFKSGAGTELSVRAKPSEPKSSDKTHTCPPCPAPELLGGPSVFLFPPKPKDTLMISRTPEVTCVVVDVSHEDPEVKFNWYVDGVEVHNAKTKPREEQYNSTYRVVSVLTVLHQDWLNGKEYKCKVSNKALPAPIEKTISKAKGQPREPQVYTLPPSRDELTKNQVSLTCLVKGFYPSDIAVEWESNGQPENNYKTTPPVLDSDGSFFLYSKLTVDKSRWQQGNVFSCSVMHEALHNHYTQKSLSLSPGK

B1 and B2 are the same in “IC50 (read off the curve)” value: about 20 ng/mL for the first, about 20 ng/mL for the second.

B3 and B4 are the same in “IC50 (read off the curve)” value: about 20 ng/mL for the first, about 20 ng/mL for the second.

target: QP003 (PDL1-his); assay: ELISA, QP003 (PDL1-his) captured on coated anti-his, anti-hFc detection; unit from the x axis Log(Conc.(nM))
Sequence (chain, as listed by the source limits assumed): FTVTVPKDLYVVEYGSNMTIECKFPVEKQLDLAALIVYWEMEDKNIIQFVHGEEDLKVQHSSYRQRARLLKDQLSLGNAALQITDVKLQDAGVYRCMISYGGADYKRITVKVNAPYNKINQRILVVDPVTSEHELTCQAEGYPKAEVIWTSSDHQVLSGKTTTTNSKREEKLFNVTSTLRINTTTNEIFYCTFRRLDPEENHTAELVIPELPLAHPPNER

B5 and B6 are within 1.5-fold of each other in EC50: 0.0134 nM for the first, 0.0133 nM for the second.

target: PD-L1-mouse Fc protein (human, UniProt Q9NZQ7 19-239, limits assumed); assay: blocking ELISA: QP1138 (PD1-FC) coated, PDL1-mouse FC mixed with the antibody, HRP anti-mouse IgG; blocked partner: PD-1; unit from the x axis Log(Conc.(nM))
Sequence (Q9NZQ7 19-239 limits assumed): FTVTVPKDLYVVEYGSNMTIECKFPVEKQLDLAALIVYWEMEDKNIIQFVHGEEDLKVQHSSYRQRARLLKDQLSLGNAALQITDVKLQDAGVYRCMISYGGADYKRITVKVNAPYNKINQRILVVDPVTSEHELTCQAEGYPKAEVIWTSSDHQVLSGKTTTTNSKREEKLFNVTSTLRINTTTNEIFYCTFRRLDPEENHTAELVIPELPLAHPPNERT

B5 and B6 are within 1.5-fold of each other in IC50: 0.663 nM for the first, 0.59 nM for the second.

Target: T1, QP098 (cyno SIRPα (I7G9Z7) …)
Assay: binding ELISA, antigen coated

Compared with B7, B1 is 1.7-fold lower in EC50: 1.57 ng/mL for the first, 0.918 ng/mL for the second.

B2 and B3 are within 1.5-fold of each other in EC50: 1.2 ng/mL for the first, 1.6 ng/mL for the second.

B4 and B8 are within 1.5-fold of each other in EC50: 1.13 ng/mL for the first, 1.3 ng/mL for the second.

B9 gave an EC50 of 1.08 ng/mL.

Target: T2, QP273 (cynoSIRPα2-flag-his T-557-14)
Assay: binding ELISA, antigen coated

First: B7
Second: B1
The EC50 of the first is 1.8-fold higher: 1.62 ng/mL for the first, 0.921 ng/mL for the second.

B2 and B3 are within 1.5-fold of each other in EC50: 1.03 ng/mL for the first, 1.43 ng/mL for the second.

B4 and B8 are within 1.5-fold of each other in EC50: 2.35 ng/mL for the first, 1.68 ng/mL for the second.

B9 gave an EC50 of 1.22 ng/mL.

target: T6, QP096 (human SIRPα V2 ECD(E31-R370)-flag-his) (human); assay: binding ELISA, antigen coated
T6 construct: the construct carries flag and his tags; also called SIRPαV2-Flag-his; Human SIRPα V2 (QP096)
T6 sequence (chain, as listed by the source limits assumed): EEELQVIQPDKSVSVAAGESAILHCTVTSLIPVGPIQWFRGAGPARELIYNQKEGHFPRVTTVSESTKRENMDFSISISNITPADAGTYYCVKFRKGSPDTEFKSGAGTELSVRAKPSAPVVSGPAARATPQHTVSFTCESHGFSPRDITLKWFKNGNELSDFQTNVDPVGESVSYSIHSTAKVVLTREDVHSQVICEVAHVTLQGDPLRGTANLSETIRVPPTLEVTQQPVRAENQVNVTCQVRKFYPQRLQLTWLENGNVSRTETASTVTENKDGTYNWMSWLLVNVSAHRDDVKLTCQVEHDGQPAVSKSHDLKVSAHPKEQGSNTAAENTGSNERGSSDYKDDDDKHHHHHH

Compared with B7, B1 is 1.7-fold lower in EC50: 1.43 ng/mL for the first, 0.862 ng/mL for the second.

B2 and B3 are within 1.5-fold of each other in EC50: 1.11 ng/mL for the first, 1.17 ng/mL for the second.

B4 and B8 are within 1.5-fold of each other in EC50: 1.05 ng/mL for the first, 1.36 ng/mL for the second.

B9 showed an EC50 of 1.13 ng/mL.

Target: T3, QP271 (rhesus SIRPα1-flag-his T-557-28)
Assay: binding ELISA, antigen coated

First: B7
Second: B1
The EC50 of the first is 2.1-fold higher: 1.17 ng/mL for the first, 0.555 ng/mL for the second.

B2 and B3 are within 1.5-fold of each other in EC50: 0.967 ng/mL for the first, 0.936 ng/mL for the second.

B4 and B8 are within 1.5-fold of each other in EC50: 0.807 ng/mL for the first, 1.21 ng/mL for the second.

With B9 the EC50 was 1.13 ng/mL.

target: T7, QP094 (human SIRPα V1 ECD(E31-R370)-flag-his) (human, UniProt P78324 31-370); assay: binding ELISA, antigen coated
T7 construct: the construct carries flag and his tags; also called SIRPαV1-flag-his; SIRPαV1-his (QP094)
T7 sequence (P78324 other isoform, or with tags, fused parts or gaps limits assumed): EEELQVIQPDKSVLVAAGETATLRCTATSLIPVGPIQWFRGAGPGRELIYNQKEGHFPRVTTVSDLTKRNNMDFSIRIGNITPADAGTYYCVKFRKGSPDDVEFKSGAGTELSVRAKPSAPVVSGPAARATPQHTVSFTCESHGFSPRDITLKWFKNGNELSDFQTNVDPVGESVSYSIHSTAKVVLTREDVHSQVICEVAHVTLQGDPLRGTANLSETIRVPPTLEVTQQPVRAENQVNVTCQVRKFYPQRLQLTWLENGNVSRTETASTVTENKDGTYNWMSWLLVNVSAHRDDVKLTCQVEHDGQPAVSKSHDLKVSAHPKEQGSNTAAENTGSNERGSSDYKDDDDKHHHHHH

Going from B7 to B1, the EC50 falls from 1.86 ng/mL to 1.07 ng/mL (1.7-fold).

B2 and B3 are within 1.5-fold of each other in EC50: 1.05 ng/mL for the first, 1.37 ng/mL for the second.

B4 and B8 are within 1.5-fold of each other in EC50: 1.12 ng/mL for the first, 1.61 ng/mL for the second.

Work on B9 yielded an EC50 of 1.15 ng/mL.

Target: T4, QP100 (cyno SIRPα (G7PGS8) …)
Assay: binding ELISA, antigen coated

First: B7
Second: B1
The EC50 of the first is 1.6-fold higher: 1.18 ng/mL for the first, 0.758 ng/mL for the second.

Going from B2 to B3, the EC50 rises from 1.23 ng/mL to 2.01 ng/mL (1.6-fold).

B4 and B8 are within 1.5-fold of each other in EC50: 0.983 ng/mL for the first, 1.01 ng/mL for the second.

With B9 the EC50 was 1.13 ng/mL.

target: T8, PD-L1-his (QPP09) (human, UniProt Q9NZQ7 19-239, limits assumed); assay: SPR, Biacore 8K
T8 construct: also called human PD-L1; human PD-L1 recombinant protein
T8 sequence (Q9NZQ7 19-239 limits assumed): as the sequence (Q9NZQ7 19-239 limits assumed) above

B5 and B6 are within 1.5-fold of each other in Kd: 1.64 nM for the first, 1.29 nM for the second.

B5 and B6 are within 1.5-fold of each other in koff: 0.00122 s⁻¹ for the first, 0.00103 s⁻¹ for the second.

B5 and B6 are within 1.5-fold of each other in kon: 744000 M⁻¹ s⁻¹ for the first, 801000 M⁻¹ s⁻¹ for the second.

Target: T1, QP098 (cyno SIRPα (I7G9Z7) …)
Assay: SPR, Biacore

B2 and B3 are within 1.5-fold of each other in Kd: 4.22 nM for the first, 6.03 nM for the second.

B8 was tested, and the Kd was 0.256 nM.

Target: T2, QP273 (cynoSIRPα2-flag-his T-557-14)
Assay: SPR, Biacore

B2 and B3 are within 1.5-fold of each other in Kd: 2.22 nM for the first, 3.2 nM for the second.

Binder B8 has a Kd of 0.163 nM.

target: T6, QP096 (human SIRPα V2 …); assay: SPR, Biacore

First: B1
Second: B2
The Kd of the first is 2-fold higher: 0.176 nM for the first, 0.0891 nM for the second.

B3 and B8 are within 1.5-fold of each other in Kd: 0.0392 nM for the first, 0.0368 nM for the second.

Target: T3, QP271 (rhesus SIRPα1-flag-his T-557-28)
Assay: SPR, Biacore

B2 and B3 are within 1.5-fold of each other in Kd: 1.74 nM for the first, 2.41 nM for the second.

For B8, the Kd was 0.1 nM.

target: T7, QP094 (human SIRPα V1 …); assay: SPR, Biacore

Compared with B1, B2 is 2.3-fold lower in Kd: 0.137 nM for the first, 0.0597 nM for the second.

First: B3
Second: B8
The Kd of the first is 3-fold higher: 0.085 nM for the first, 0.0288 nM for the second. The second binds more tightly here.

target: T5, QP002; assay: blocking ELISA: QP001.2 (CD47) coated, biotin-QP002 (SIRPα-FC) mixed with the antibody, HRP-streptavidin; blocked ligand: CD47; unit from the x axis Log[Conc.(ug/ml)]

B7 and B8 are within 1.5-fold of each other in IC50: 23.4 ng/mL for the first, 25 ng/mL for the second.

In the case of B9, the IC50 is reported as 23.3 ng/mL.
